Experimental data from patent publication US20120114667A1.

B1: 3C5 (antibody, IgG2, V domains shown)
VH: RVQLQESGPGLVKPSQTLSLTCTVSGGSIISGGYFWTWIRQHPGKGLEWIGYIYYSGSTYYSPSLKSRVTISVDTSKNQFSLKLSSVTAADTAVYYCTRAVPAAKGYYSYYGMDVWGQGTTVTVSS
VL: DIVMTQSPLSLPVTPGEPASISCRSSQSLLHSSGYNYLDWFLQKPGQSPQLLIYLSSNRASGVPDRFSGSGSGTDFTLKISRVEAEDVGVYYCMQALQTPFTFGPGTKVDIK
B2: 5B11 (antibody, IgG2, V domains shown)
VH: QVQLVESGGGVVQPGRSVRLSCAASGFTFSSYGMHWVRQTPGKGLEWVAIIWYDGGIEYYADSVKGRFTISRDNSKNTLYLQMNSLRAEDTAVYYCARDHRYGSSWFDYWGQGTLVTVSS
VL: DIQMTQSPSSLSASVGDRVTITCRASQGINNYLAWFQQKPGKAPKSLIYAASSLQSGVPSNFSGSGSGTDFTLSISSLQPEDFATYYCQQYKSYPLTFGGGTKVEIR

Target: avb3 and avb5 integrins on A375M cells
Assay: cell-based or functional assay

Binder	Osteopontin Adhesion (% inhibition) at 5 ug/ml, A375M cells [%]	Vitronectin Adhesion (% inhibition) at 5 ug/ml, A375M cells [%]
B1	3	10
B2	13	9
